Experimental findings from article PMC3101595 (The Journal of Cell Biology, 2010) are described below.

The data set “cross-linking” deals with the molecule itself. Put plainly: cross-linking.
Another data set deals with T1, 6His-Flag-DIAP1 (Drosophila, UniProt Q24306 1-438).
T1 sequence (looked up): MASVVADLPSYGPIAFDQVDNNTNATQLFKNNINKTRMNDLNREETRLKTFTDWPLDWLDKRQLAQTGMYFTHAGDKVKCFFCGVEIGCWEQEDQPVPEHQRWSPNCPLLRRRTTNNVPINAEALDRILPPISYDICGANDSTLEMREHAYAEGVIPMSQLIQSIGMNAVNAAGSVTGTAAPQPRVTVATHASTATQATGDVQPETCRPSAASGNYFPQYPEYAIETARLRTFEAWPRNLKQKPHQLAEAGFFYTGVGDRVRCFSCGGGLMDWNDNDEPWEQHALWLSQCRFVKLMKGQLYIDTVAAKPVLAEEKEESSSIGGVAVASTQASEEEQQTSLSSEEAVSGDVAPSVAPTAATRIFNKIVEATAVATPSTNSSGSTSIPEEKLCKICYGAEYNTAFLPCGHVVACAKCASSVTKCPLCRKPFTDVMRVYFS
The data set is described as follows: co-IP.

B1: HidΔMTS-His6 (domain or fragment, Drosophila, UniProt Q24106 1-386, looked up)
chain: MAVPFYLPEGGADDVASSSSGASGNSSPHNHPLPSSASSSVSSSGVSSASASSASSSSSASSDGASSAASQSPNTTTSSATQTPMQSPLPTDQVLYALYEWVRMYQSQQSAPQIFQYPPPSPSCNFTGGDVFFPHGHPNPNSNPHPRTPRTSVSFSSGEEYNFFRQQQPQPHPSYPAPSTPQPMPPQSAPPMHCSHSYPQQSAHMMPHHSAPFGMGGTYYAGYTPPPTPNTASAGTSSSSAAFGWHGHPHSPFTSTSTPLSAPVAPKMRLQRSQSDAARRKRLTSTGEDEREYQSDHEATWDEFGDRYDNFTAGRERLQEFNGRIPPRKKKSSNSHSSSSNNPVCHTDSQPGGTSQAESGAIHGHISQQRQVERERQKAKAEKKKP
On to B1, for which the binding result in “cross-linking” and with 6His-Flag-DIAP1 was “binds” throughout.

B2: Rpr-His6 (natural protein, Drosophila, UniProt Q24475 1-65, looked up)
chain: MAVAFYIPDQATLLREAEQKEQQILRLRESQWRFLATVVLETLRQYTSCHPKTGRKSGKYRKPSQ
With B2, the binding result in the data set “cross-linking” is given as “binds”.
